Experimental data published in article PMC2475608.
Numbering of substitutions follows the chain as printed. Numbers in names are those of the source.

B1: EcoR124I HsdR subunit, wild type (enzyme)
chain: MTHQTHTIAESNNFIVLDKYIKAEPTGDSYQSESDLERELIQDLRNQGYEFISVKSQSAMLANVREQLQNLNGVVFNDSEWRRFTEQYLDNPSDGILDKTRKIHIDYICDFIFDDERLENIYLIDKKNLMRNKVQIIQQFEQAGSHANRYDVTILVNGLPLVQIELKKRGVAIREAFNQIHRYSKESFNSENSLFKYLQLFVISNGTDTRYFANTTKRDKNSFDFTMNWAKSDNTLIKDLKDFTATCFQKHTLLNVLVNYSVFDSSQTLLVMRPYQIAATERILWKIKSSFTAKNWSKPESGGYIWHTTGSGKTLTSFKAARLATELDFIDKVFFVVDRKDLDYQTMKEYQRFSPDSVNGSENTAGLKRNLDKDDNKIIVTTIQKLNNLMKAESDLPVYNQQVVFIFDECHRSQFGEAQKNLKKKFKRYYQFGFTGTPIFPENALGSETTASVFGRELHSYVITDAIRDEKVLKFKVDYNDVRPQFKSLETETDEKKLSAAENQQAFLHPMRIQEITQYILNNFRQKTHRTFPGSKGFNAMLAVSSVDAAKAYYATFKRLQEEAANKSATYKPLRIATIFSFAANEEQNAIGEISDETFDTSAMDSSAKEFLDAAIREYNSHFKTNFSTDSNGFQNYYRDLAQRVKNQDIDLLIVVGMFLTGFDAPTLNTLFVDKNLRYHGLMQAFSRTNRIYDATKTFGNIVTFRDLERSTIDAITLFGDKNTKNVVLEKSYTEYMEGFTDAATGEAKRGFMTVVSELEQRFPDPTSIESEKEKKDFVKLFGEYLRAENILQNYDEFATLKALQQIDLSDPVAVEKFKAEHYVDDEKFAELQTIRLPADRKIQDYRSAYNDIRDWQRREKEAEKKEKSTTDWDDVVFEVDLLKSQEINLDYILGLIFEHNRQNKGKGEMIEEVKRLIRSSLGNRAKEGLVVDFIQQTNLDDLPDKASIIDAFFTFAQREQQREAEALIKEENLNEDAAKRYIRTSLKREYATENGTELNETLPKLSPLNPQYKTKKQAVFQKIVSFIEKFKGVGGKI
B2: EcoR124I HsdR Y183A (enzyme)
chain: B1 chain with Y183A
B3: EcoR124I HsdR Y183F (enzyme)
chain: B1 chain with Y183F
B4: EcoR124I HsdR Q179K (enzyme)
chain: B1 chain with Q179K

Biological target: EcoR124I MTase (M2S1 complex) (UniProt P10484)
Assay: native gel or EMSA

Chain of UniProt P10484 (P10484 whole entry, chain 1 of 2): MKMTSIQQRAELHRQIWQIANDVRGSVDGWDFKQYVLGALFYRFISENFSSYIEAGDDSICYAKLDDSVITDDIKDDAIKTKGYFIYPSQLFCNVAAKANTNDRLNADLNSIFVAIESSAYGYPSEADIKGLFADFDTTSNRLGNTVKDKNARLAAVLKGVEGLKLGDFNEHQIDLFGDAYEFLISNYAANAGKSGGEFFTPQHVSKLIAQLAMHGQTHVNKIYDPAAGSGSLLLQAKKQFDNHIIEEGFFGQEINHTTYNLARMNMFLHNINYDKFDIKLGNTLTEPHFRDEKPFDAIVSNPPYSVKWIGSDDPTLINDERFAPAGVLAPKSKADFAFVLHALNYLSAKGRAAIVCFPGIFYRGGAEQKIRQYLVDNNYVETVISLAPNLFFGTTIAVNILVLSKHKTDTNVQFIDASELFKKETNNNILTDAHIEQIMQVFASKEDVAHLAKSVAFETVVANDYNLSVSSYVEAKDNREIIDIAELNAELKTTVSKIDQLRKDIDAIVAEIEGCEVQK
Chain of UniProt P10484 (P10485 whole entry, chain 2 of 2, further chain): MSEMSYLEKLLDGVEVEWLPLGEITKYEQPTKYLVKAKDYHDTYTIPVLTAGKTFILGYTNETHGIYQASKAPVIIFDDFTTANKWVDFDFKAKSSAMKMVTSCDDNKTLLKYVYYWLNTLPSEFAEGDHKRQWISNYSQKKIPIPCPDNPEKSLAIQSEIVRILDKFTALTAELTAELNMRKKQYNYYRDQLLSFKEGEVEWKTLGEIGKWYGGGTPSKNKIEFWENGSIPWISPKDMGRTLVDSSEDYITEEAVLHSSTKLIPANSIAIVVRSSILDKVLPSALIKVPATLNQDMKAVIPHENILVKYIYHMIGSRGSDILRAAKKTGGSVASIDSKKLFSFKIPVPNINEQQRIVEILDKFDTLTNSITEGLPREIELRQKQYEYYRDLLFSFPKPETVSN

Row | Binder | K1,app (first HsdR on the DNA-bound MTase, R1 complex)
1 | B1 | 15 nM
2 | B2 | 15 nM
3 | B3 | 14 nM
4 | B4 | 10 nM
